Test results reported in publication PMC12678531, “Cytosolic TOP3α facilitates mitochondrial DNA sensing by cGAS”.

Molecular target: cGAS (Homo sapiens, UniProt Q8N884 1-522)
Experiment: EMSA; 300 pmol protein, 50 pmol DNA in 10 uL; EMSA: Beyotime GS005 binding buffer, 37 C, 15 min, 10 uL, 6% PAGE in TBE at 4 C; extract pull-down: 50 mM Tris-HCl pH 7.5, 150 mM NaCl, 0.025% digitonin
Settings: protein: recombinant; tags: C-terminal LE-6xHis; chain copies: 2; label: none for EMSA (GelRed stain); blunt

Sequence of cGAS (Q8N884 whole entry): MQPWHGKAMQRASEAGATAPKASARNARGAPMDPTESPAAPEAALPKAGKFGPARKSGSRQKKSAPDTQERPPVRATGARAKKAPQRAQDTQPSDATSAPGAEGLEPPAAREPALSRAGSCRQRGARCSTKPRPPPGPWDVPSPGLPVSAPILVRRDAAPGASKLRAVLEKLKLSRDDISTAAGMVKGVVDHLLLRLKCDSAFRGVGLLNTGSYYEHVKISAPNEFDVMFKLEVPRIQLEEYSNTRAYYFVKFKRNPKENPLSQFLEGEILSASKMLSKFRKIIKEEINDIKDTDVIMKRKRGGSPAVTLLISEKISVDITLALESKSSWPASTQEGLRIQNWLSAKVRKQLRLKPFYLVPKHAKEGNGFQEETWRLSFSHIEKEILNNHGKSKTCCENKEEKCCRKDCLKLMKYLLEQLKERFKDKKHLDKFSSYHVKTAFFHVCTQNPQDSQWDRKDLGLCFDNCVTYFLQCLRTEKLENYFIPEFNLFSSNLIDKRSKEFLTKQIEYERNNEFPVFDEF

B1: DNA2 (30 bp) (dsDNA)
DNA 1: CCGAAACCAGACGAGCTACCTAAGAACAGC
DNA 2: GCTGTTCTTAGGTAGCTCGTCTGGTTTCGG
  binding result: binds
